Test results taken from the domain aggregation screens of Martell et al. (2025).

assay: soluble fraction after stress (log2 fold change); higher = more stays soluble; pooled small domains, quantitative proteomics; conditions: stress: 75 degC
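Further: 20 min heating vs room temperature control held 20 min.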

| Sequence | soluble fraction (log2) |
| --- | --- |
| HMDILPEGNYKVNYDVIDEVGNIVANKNDIVVTEKSIKPLNTILGIDLYEVIHSQTGKYFTINGDNLTN | -0.0277 |
| HMDINLGIGPLVKKYRTIKGYSIRELARNINVTASMLSQIERDIVNPSINTLKAISVELGVPMYKFFM | -2.38 |
| HMDINLSENLVRLRHAKKLTQEQLADFLGVTKASVSKWETRQSLPDILLLPRLAAFYGVTVDELIGYEP | -1.81 |
| HMDISKTLGKNPLLIIDNIEYRGKTLDEITAMTGVKRFENIDIYGSEEAMKTYGEKAKDGVIIAYTT | 0.0575 |
| HMDITGIGIKKRIKAIIDSEDKKNPLSDTQIVEILKNEGLEISRRTVAKYRSDLQIPSSSKRKK | 0.143 |
| HMDIVEIYVGEEDGERIDSYLAQELNNVSRSYVQGLIKNQLITVNGNHVKPKHIVKEGEHIIVNIPPPKV | -0.0948 |
| HMDIVENSMPNVVGLELNRAKELMTQLGFTNVRYEPTESSRPENEVVYQSVDKDETLDVSSEIIIQYSSGV | 0.0628 |
| HMDKEKLQEKLLQIFEAEPQKKFQVQDLVKVLDMEGAGQFKFVVQALADLEHNKQIKLSEDDTFSLIVKE | -0.173 |
| HMDKENVLQLQKDLLRLSVNALEKRYYQFSDILLLKYILPLVPKEISIDDQSRLRSLLSGIN | -0.538 |
| HMDKEPTHLHTFRLIKEGKSSEEIAEIRNITLGTVNTHLAKLIAVGELTIEQVISKHRLDYVMEAIKNSK | 0.176 |
| HMDKKIVGVNAGKVWQALNEVTEISIVELAEKLNLSVESTALAAGWLAREDQISIERKNGTIELQRKN | -0.91 |
| HMDKNNLLIIYRTNSEGTPYAFSVTPSAKSLDALHKDAKEMLPFLEKSMNNFFSIQIWERAEYLKY | -0.785 |
| HMDKPGMRLNQFIAHSGISSRREADNLIKAGLVQVNGKIIVEMGFRVMPTDIVKFNNETIAS | -2.08 |
| HMDKPIVFLEDTKAHKSSDLQSPVYMTVPKGTIAFVIAEKGDWSQVYAGRVLDRNLASQWVRRGFS | 0.267 |
| HMDKSLDFASIKSVEIATGRKFGWHALKKWSKSNSSEIKTIPDPNFGEVKTYHKDAWLAVYNINLSPILD | -0.376 |
| HMDKSPMIGTAEYEGVLYWRQTKDNGATWEWITDKNGDKMPVSGPAPAVGIDKDGYWTVNGESTGVLAKD | 0.225 |
| HMDKVSYALGLGIGRQLTDMGAKDLNIDDFAQAIKDVLAGGEVKLSDAEAQTIVRNFFDEQEKKQRA | -0.029 |
| HMDLANLQNGQTLPLQRDVEVISIPFGKTISLSEDSVVSIMQAKGSSVSVAYEGRLYLIEGSNLDALGLEP | -1.1 |
| HMDLANRSLDRGITILESLARNGASSLADLHRDSGIAKSTIRRLLGTLIQHRLVRRSVADGLYRVTIPLPA | -1.42 |
| HMDLDIQNYNLDEILELFKVSYDFDETELKKAHKMYLMTHPDKSNLNPNIFLFFVQAYDILRKLYEFR | -0.691 |

| Sequence | soluble fraction (log2) |
| --- | --- |
| HMDLDIRDDIYRANIPNDYKLQQMQNNIDYDKVLTGYYNNRPEANVIANRTLQLANDVYNRD | 0.00307 |
| HMDLDLNIDNYNFDDLLNLFGLKMKFSEDDLKKAKRSVLMTHPDKSGLDKQYFMFFTKAYKMLSQIYYFR | 0.572 |
| HMDLDPNKPAIPIAYPRVLLNIMAEKGFSRTEVLAGSGLADSVFDKPDHRITPAQFLFILMNSFYLS | -0.67 |
| HMDLFLVYQFIRRLATPFTEWKAHELGIIDDKGVQLKKRRDFTTREEKDAYGIFDIMITKLKRLIEKV | 0.0817 |
| HMDLFSAVVHHIVGQQISTKAQATIWKRMRDEFGVVDAAAVLGAGVEKLQSFGMTFRKAEYITDFARKIE | -2.61 |
| HMDLGLTDDQRLVYGLLSPTVPRSSGELLGMVDFGRSKLSRILKELIELGQVFTVGVGRGLKYKRG | -0.482 |
| HMDLGTHMRLIVPTGMRVDHIVYESNGKNISVDHDRSISVRWNGEVVSIDVSPLPSRPDFDVLIYMSPK | -0.134 |
| HMDLLAESLTRREAEVAALAARGLTNRAIAELFGLSVRTAETHLHRAMGKLGANRREDLLLHADRLDPG | -1.41 |
| HMDLLESLSAREREVVHLASRGLVNKLIARELGITERTVKAHLSSAFEKLHIKDRVHLALLVNGI | -2.46 |
| HMDLLKANNLSQINVDKLTDEEILKYSQQLKQSGLTESQAEQIAIARGMPATEIAKLKQRLISLTNMQ | 0.118 |
| HMDLLVWRVADEDAGERIDKLVVDSLDDVSRTAVQQWIKDGLVTVNGKTVKPNYKAAAGDEVAVSVPEPE | 0.239 |
| HMDLMKKTLTKEMLLIDFMKQQFPDSSTNKLRKMLSSGRVKINNLITHKAKSQLKLGDIFELANKPHD | -1.31 |
| HMDLPGIVTETDRQRADLAARIGAAKVEAVLAGGARSVEADEDFDADTRRELHQFLTRMARRAFLEER | 0.1 |
| HMDLPSSETLKVKLNLAKAYVTIEDFGAARRALDEVLSVSSLVDPDLTIQAKSLLAEIDQRS | -0.352 |
| HMDLQAAWLQTVRHLLAHTEDVGDRFAEEARRIHYGEEPHRGIRGQATPEERLALREEGIETMSIPV | -0.919 |
| HMDLQHQLTPRLKRLRLSGILETLEVRNQQAIAEKWSYVEFLTRLAEDEVERRDHKQLTLRLR | -0.529 |
| HMDLSYPFTTVTTDNVNMRRSASSSSVVLERIDKGDSITVLGTSGNYYKVSYNDRTGYVLKQYVDVSAATT | -0.254 |
| HMDLTPEEQMDLYRLLDSLPTEERTYLILHYFEERSFPEMAEILSMPEAKLKSRFYRILHRLRAHL | -2.74 |
| HMDLTSDANLKEAKDQILNLLNDGKRHHVTEINKILLPPVQVQEALRFLIHEETVRVDASFLF | -0.104 |
